Targets include H6-tTF219-cys-C′ (human) (UniProt P13726); H6-tTF220-cys-C′ (human) (UniProt P13726); tTF220-cys-C′ (human) (UniProt P13726); tTF221-cys-C′ (human) (UniProt P13726).
Assay in all cases: cell-based or functional assay
Assay [1] has as its target H6-N′-cys-tTF219 (human) (UniProt P13726).
The target of assay [2] is H6-tTF221-cys-C′ (human) (UniProt P13726).
Assay [3] has as its target IgG-H6-N′-cys-tTF219 (human) (UniProt P13726).
Assay [4] deals with tTF219, truncated Tissue Factor (extracellular domain of mature Tissue Factor, amino acids 1-219) (human) (UniProt P13726).
tTF219, truncated Tissue Factor (extracellular domain of mature Tissue Factor, amino acids 1-219) (human), sequence (P13726 other isoform, or with tags, fused parts or gaps): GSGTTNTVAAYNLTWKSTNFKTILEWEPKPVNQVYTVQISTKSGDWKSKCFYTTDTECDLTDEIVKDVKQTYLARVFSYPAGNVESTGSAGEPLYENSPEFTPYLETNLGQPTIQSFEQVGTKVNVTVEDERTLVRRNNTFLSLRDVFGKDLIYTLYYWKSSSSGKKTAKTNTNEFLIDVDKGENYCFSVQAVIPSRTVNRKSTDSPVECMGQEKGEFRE
For assay [5] the target is unchanged. This is another data set of the same source.
The target in assay [6] is H6-N′-cys-tTF219 dimer (human) (UniProt P13726).
H6-N′-cys-tTF219 dimer (human), sequence (P13726 other isoform, or with tags, fused parts or gaps): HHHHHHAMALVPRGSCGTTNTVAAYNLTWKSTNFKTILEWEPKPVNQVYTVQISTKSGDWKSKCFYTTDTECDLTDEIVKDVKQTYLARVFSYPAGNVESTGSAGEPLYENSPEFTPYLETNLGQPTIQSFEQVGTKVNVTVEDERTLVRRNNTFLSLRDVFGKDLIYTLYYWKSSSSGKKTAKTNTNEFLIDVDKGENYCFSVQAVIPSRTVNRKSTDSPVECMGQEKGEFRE
For assay [7], the target named is H6-tTF221-cys-C′ (human) (UniProt P13726). The source holds these as a separate data set.
Assay [8] addresses H6-tTF221-cys-C′ dimer (human) (UniProt P13726).
The target of assay [9] is tTF219, truncated Tissue Factor (extracellular domain of mature Tissue Factor, amino acids 1-219) (human) (UniProt P13726). The source holds these as a separate data set.
Assay [10] concerns the target H6-N′-cys-tTF219 (human) (UniProt P13726). The source holds these as a separate data set.
For assay [11], the target named is IgG-H6-N′-cys-tTF219 (human) (UniProt P13726). This is another data set of the same source.
Assay [12] addresses tTF219, truncated Tissue Factor (extracellular domain of mature Tissue Factor, amino acids 1-219) (human) (UniProt P13726). This is another data set of the same source.

The text below walks through data of patent publication US20030232753A1.

Several values for one entry are separate records, joined by “and”; a condition that tells them apart may be missing. Equal values may be shown once. Read-outs that look alike come from different tables or passages of the source.

H6-tTF221-cys-C′ (human), sequence (P13726 other isoform, or with tags, fused parts or gaps limits assumed): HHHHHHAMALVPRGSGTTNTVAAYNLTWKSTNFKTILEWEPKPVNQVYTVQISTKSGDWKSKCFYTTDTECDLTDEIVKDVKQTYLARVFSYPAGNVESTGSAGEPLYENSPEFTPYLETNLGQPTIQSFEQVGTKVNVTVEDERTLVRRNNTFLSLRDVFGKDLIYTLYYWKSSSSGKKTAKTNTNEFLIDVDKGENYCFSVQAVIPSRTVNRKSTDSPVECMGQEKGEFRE
tTF220-cys-C′ (human), sequence (P13726 other isoform, or with tags, fused parts or gaps): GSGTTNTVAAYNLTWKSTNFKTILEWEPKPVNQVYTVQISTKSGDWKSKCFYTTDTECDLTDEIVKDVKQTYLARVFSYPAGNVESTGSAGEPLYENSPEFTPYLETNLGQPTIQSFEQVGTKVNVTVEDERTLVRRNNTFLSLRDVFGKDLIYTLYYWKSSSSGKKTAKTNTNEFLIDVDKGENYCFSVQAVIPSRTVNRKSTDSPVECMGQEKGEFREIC
tTF221-cys-C′ (human), sequence (P13726 other isoform, or with tags, fused parts or gaps): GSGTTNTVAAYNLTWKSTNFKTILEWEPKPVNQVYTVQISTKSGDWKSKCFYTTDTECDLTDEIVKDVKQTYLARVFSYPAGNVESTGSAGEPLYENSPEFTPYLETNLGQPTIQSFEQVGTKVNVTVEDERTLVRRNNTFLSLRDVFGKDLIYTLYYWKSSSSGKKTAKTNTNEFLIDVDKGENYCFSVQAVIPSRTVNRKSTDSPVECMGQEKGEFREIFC
H6-tTF219-cys-C′ (human), sequence (P13726 other isoform, or with tags, fused parts or gaps): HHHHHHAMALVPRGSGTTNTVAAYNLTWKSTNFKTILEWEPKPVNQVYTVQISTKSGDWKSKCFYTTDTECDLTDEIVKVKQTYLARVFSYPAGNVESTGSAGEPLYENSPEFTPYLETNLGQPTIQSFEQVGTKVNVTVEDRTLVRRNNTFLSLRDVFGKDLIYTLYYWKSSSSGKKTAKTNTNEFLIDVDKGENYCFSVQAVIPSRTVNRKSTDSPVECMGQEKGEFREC

Regarding “B21-2/10H10 bispecific antibody (Fab′ arm of the B21-2 antibody, specific for I-A^d, linked to the Fab′ arm of the 10H10 antibody, specific for tTF)”, the tTF concentration giving coagulation in 50 seconds with H6-N′-cys-tTF219 (human) [1] was 3 nM; with H6-tTF219-cys-C′ (human) it was 3 nM; with H6-tTF220-cys-C′ (human), 500 pM; with H6-tTF221-cys-C′ (human) [2], 500 pM; in assay [4], 500 pM; with tTF220-cys-C′ (human) it was 500 pM. Besides, the tTF concentration giving coagulation in 50 seconds with tTF221-cys-C′ (human) was 500 pM; in assay [5], 3 nM; in assay [6], 100 pM and 200 pM; in the assay with H6-tTF221-cys-C′ (human) [7] it was 1 nM; in assay [8], 4 nM; in [9], 100 pM and 200 pM. In addition, the tTF concentration giving coagulation in 50 seconds was 1 nM with H6-N′-cys-tTF219 (human) [10], 5 nM in assay [11] and 1 nM in assay [12]. Besides, the fold less active than H6-N′-cys-tTF219 at inducing Xa formation in [3] came to 2 fold. Besides, the clotting time in [4] is 60 s. This substance came in with a clotting time (time for the first fibrin strands to form), mouse plasma on A20 cells in [4] of 36 s. In assay [8], the fold less active than H6-tTF221-cys-C′ monomer or tTF219 at inducing coagulation is 4 fold. This substance also returned a fold reduction of coagulation inducing activity relative to unconjugated H6-N′-cys-tTF219 or tTF219 in [11] of 5 fold.
